T1: 人TIGIT (TIGIT-Jurkat细胞表面) (human, UniProt Q495A1 22-244)
T1 construct: whole, on cells
T1 sequence (looked up): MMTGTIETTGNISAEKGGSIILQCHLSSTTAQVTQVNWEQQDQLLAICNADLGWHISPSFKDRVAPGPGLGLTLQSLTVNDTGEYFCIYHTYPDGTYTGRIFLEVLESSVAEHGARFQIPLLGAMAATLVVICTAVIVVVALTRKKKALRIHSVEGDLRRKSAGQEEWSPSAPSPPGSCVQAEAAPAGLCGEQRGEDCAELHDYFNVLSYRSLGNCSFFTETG


biological target: T1, 人TIGIT (TIGIT-Jurkat细胞表面); test: flow cytometry; blocking of 12.5 nM biotinylated PVR-Fc binding to TIGIT-Jurkat cells

IC50 [pM]	Binder
441	抗体h10D8OF (antibody, human IgG1, kappa, V domains shown, also called 抗TIGIT抗体) VH: QVQLVESGGGVVQPGRSLRLDCKASGFTFSSYGMSWVRQAPGKGLELVATINSNGGSTYYPDSVKGRFTISRDNSKNTLFLQMNSLRAEDTAVYYCARLGTGTLGFAYWGQGTLVTVSS VL: EIVMTQSPATLSLSPGERATLSCKASQDVKTAVSWYQQKPGQAPRLLIYWASTRATGIPARFSGSGSGTDYTLTISSLEPEDFAVYYCQQHYSTPWTFGQGTKVEIKR
742	抗体h10D8OFKF (antibody, human IgG1, kappa, V domains shown, fucosylation level about 0 (expressed in alpha-(1,6)-fucosyltransferase knockout CHO cells), also called 抗TIGIT抗体) VH: QVQLVESGGGVVQPGRSLRLDCKASGFTFSSYGMSWVRQAPGKGLELVATINSNGGSTYYPDSVKGRFTISRDNSKNTLFLQMNSLRAEDTAVYYCARLGTGTLGFAYWGQGTLVTVSS VL: EIVMTQSPATLSLSPGERATLSCKASQDVKTAVSWYQQKPGQAPRLLIYWASTRATGIPARFSGSGSGTDYTLTISSLEPEDFAVYYCQQHYSTPWTFGQGTKVEIKR
2820	参照抗体Tiragolumab (antibody, V domains shown) VH: EVQLQQSGPGLVKPSQTLSLTCAISGDSVSSNSAAWNWIRQSPSRGLEWLGKTYYRFKWYSDYAVSVKGRITINPDTSKNQFSLQLNSVTPEDTAVFYCTRESTTYDLLAGPFDYWGQGTLVTVSS VL: not shown
